Test results taken from US11787850B2, “Peptidic TGF-beta antagonists” (priority 2015, dated 2023).

Key:
[1] = system: TGF-β1-induced PAI-1 protein production in A431 cells; test: Western blot for PAI-1 in A431 cells; assay type: cell-based; details: 10 nM peptide, 100 pM TGF-β1, 24 hrs (FIG. 7)
Procedure: FIG. 7 illustrates that the small molecular weight CD109-based peptide P16 (but not P11 or P16-1) inhibits TGF-β1-induced PAI-protein production. A431 cells were treated without (lane 1) or with 100 pM of TGF-β1 (lanes 2-6) in the absence (lane 2) or presence of 10 nM of P11 (11 aa peptide, lane 3), P16 (16 aa peptide, lane 4), P16-1 (scrambled peptide of 16 aa, lane 5) or Tris buffer (buffer, lane 6) for 24 hrs. Cell lysates were analyzed by Western blot for PAI-1 ([…]) protein levels and normalized to GAPDH protein levels (loading control). In the conditions tested, P16 (but not P11) inhibited TGF-β1-induced PAI-1 expression.
A431 cells were treated for 18 hours without (−) or with (+) 100 pM TGF-β1 in the presence or absence of Peptide X or P16. The peptides were previously dissolved in Tris buffer and left untreated or treated with DMSO prior to addition to the cells. Cell lysates were analyzed by Western blot for PAI-1 (plasminogen activator inhibitor-1) protein expression (top panel) and GAPDH served as a loading control (bottom panel). PAI-1 was not detected in untreated cells (lane 1).
A431 cells were grown in 6-well plates to 70-80% confluency and serum-starved overnight. Cells were washed with PBS and treated with or without TGF-β1 in presence or absence of various CD109-based peptides as indicated in the figure legends. Cells were solubilized with 500 μl of lysis buffer (50 mM Tris, pH 7.5, 150 mM NaCl, 50 mM NaF, 50 mM β-glycerophosphate, 1 mM sodium orthovanadate, 1 mM dithiothreitol, 5 mM EDTA, pH 8.0, 1% Nonidet P-40, 10% glycerol, 10 μM phenylmethylsulfonyl fluoride, 200 μg/ml bovine serum albumin, 1 μg/ml leupeptin, […] soybean trypsin inhibitor, 10 μg/ml benzamide, and 2 μg/ml pepstatin) for 30 min at 4° C. with mild agitation. Cell lysates were collected and centrifuged for 10 min at 10,000×g. The supernatants were collected and protein concentrations were determined using the Bio-Rad protein assay kit. Lysates containing equivalent protein concentrations were mixed with 0.2 volume of 5× electrophoresis sample buffer containing 5% β-mercaptoethanol and boiled for 5 min. Samples were resolved on 7.5% SDS-polyacrylamide gels and transferred to nitrocellulose membranes. Membranes were blocked for 3 h in blocking buffer (30 mM Tris, pH 7.5, 150 mM NaCl, and 0.05% (w/v) Tween 20™ (Tris-buffered saline/Tween) containing 5% (w/v) skim milk powder). The blot was incubated overnight at 4° C. with a 1:1000 dilution of anti-PAI-1 antibody (BD Biosciences). Blots were washed with Tris-buffered saline/Tween and incubated for 45 min at room temperature with a 1:5000 dilution of secondary antibody conjugated to horseradish peroxidase (Pierce). Chemiluminescence detection of the immune complexes was performed using the ECL system (Amersham Biosciences) according to the manufacturer's instructions. The membranes were stripped and reprobed with an anti-GAPDH antibody to confirm equal protein loading.
A431 cells were treated without (lane 1) or with 100 pM of TGF-β1 (lanes 2-6) in the absence (lane 2) or presence of 10 nM of P11 (11 aa peptide, lane 3), P16 (16 aa peptide, lane 4), P16-1 (scrambled peptide of 16 aa, lane 5) or Tris buffer (buffer, lane 6) for 24 hrs. Cell lysates were analyzed by Western blot for PAI-1 ([…]) protein levels and normalized to GAPDH protein levels (loading control).
A431 squamous cell carcinoma cells were treated for 18 hours without (−) or with (+) 100 pM TGF-β1 in the presence or absence of Peptide X or P16. The peptides were dissolved in Tris buffer and left untreated or treated with 0.5% DMSO prior to addition to the cells. Cell lysates were analyzed by Western blot for PAI-1 ([…]) protein expression (top panel) and GAPDH served as a loading control (bottom panel).

[2] = Size-exclusion chromatography on Superdex Peptide 10/300GL column; assay type: physicochemical; details: for formation of aggregates by size-exclusion chromatography: peptide in PBS, Superdex Peptide 10/300GL, 0.6 ml/min; for Aggregation?: size-exclusion chromatography, peptide dissolved in PBS
Procedure: Approximately 200 μg of each peptide X (40 amino acids), X-1 (28 amino acids), peptide A (161 amino acids), P11 (11 amino acids), P16 (16 amino acids), P21 (21 amino acids, P16-2 (16 amino acids, scrambled sequence control), X-3 (16 amino acids) and X-4 (11 amino acids) were dissolved in phosphate-buffered saline (PBS) and loaded onto a Superdex Peptide 10/300GL column. The column was eluted with PBS at a flow rate of 0.6 mL/min and eluents were analyzed for peptide content by measuring relative absorbance at a wavelength of 215 nm. (FIGS. 3A and 3B) The data is plotted with relative absorbance (Y-axis) against elution volume (X-axis). Peptides 1-9 are color coded (A—peptides (1) to (5); B (peptides (6) to (9)). As shown on panel A, peptide X (peptide 1, black line) elution profile indicated two major peaks at approximately 8 mL and 11 mL which correspond to molecular weights greater than 12.4 kDa. The theoretical molecular weight of peptide X is 4.7 kDa which is expected to elute from the column at approximately 15 mL. Under the conditions tested, peptide X existed as high molecular weight aggregates with minimal soluble (monomeric) form. On the other hand, P16 (peptide 5, green line) elution profile indicated a broad peak between 14-22 mL which is expected to contain peptides of between 0.1 and 6 kDa and is consistent with its theoretical molecular weight of 2.01 kDa.
FIG. 4 illustrates the standard curve used for size-exclusion chromatography of standard peptides using the Superdex Peptide 10/300 GL column (results provided in FIG. 3). A pool of standard peptides of various molecular weights (1. cytochrome c (Mr 12.384 kDa) 1 mg/mL; 2. aprotinin (Mr 6.512 kDa) 2 mg/mL; 3. vitamin B12 (Mr 1.355 kDa) 0.1 mg/mL; 4. (Gly)3 (Mr 0.189 kDa) 0.1 mg/mL; 5. Gly (Mr 0.075 kDa) 7.8 mg/mL) were subjected to size-exclusion chromatography using the Superdex Peptide 10/300 GL column (flow rate 0.5 ml/min at room temperature, sample volume of 50 μL, eluent 0.05M phosphate, 0.15 M NaCl, ph 7.0). The resulting chromatogram (absorbance at 215 nm (in mAU, left Y axis) and conductivity (in mS/cm, right Y axis, in function of volume of elution (in mL)) indicates the elution profiles of the above peptides with high MW peptides eluting in earlier fractions and lower MW peptides eluting in later fractions as expected. The molecular weights of peptides were plotted against elution volume generating a standard curve (not shown).
More specifically, approximately […] of each peptide X (40 amino acids), X-1 (28 amino acids), peptide A (161 amino acids), P11 (11 amino acids), P16 (16 amino acids), P21 (21 amino acids, P16-2 (16 amino acids, scrambled sequence control), X-3 (16 amino acids) and X-4 (11 amino acids) were dissolved in phosphate-buffered saline (PBS) and loaded onto a Superdex Peptide 10/300GL column. The column was eluted with PBS at a flow rate of 0.6 ml/min and eluants were analyzed for peptide content by measuring relative absorbance at a wavelength of 215 nm. The data were plotted with relative absorbance (Y-axis) against elution volume (X-axis). […] The theoretical molecular weight of peptide X is 4.7 kDa which is expected to elute from the column at approximately 15 mL. […] P16 (peptide 5) elution profile indicated a peak between 14-22 mL which was expected to contain peptides of between 0.1 and 6 kDa and is consistent with its theoretical molecular weight of 2.01 kDa.
More specifically, a pool of standard proteins of various molecular weights were subjected to size-exclusion chromatography using the Superdex Peptide 10/300 GL column. The resulting chromatogram indicated the elution profiles of the peptides with high molecular weight peptides eluting in earlier fractions and lower molecular weight peptides eluting in later fractions as expected. The molecular weights of peptides were plotted against elution volume generating a standard curve (not shown) and was used to calculate molecular weights of the CD109-based peptides. […]

[3] = system: TGF-β1-induced Smad3-driven (CAGA12-lux) transcriptional activity; test: Luciferase reporter assay in HEK293-(CAGA)12 cells; assay type: cell-based
[4] = system: TGF-β1-induced Smad3-driven (CAGA12-lux) transcriptional activity; test: Luciferase reporter assay in HEK293-(CAGA)12 cells; assay type: cell-based; details: 100 pM TGF-β1, 18 hours
Procedure: FIGS. 5A and 5B illustrate that some small molecular weight CD109-based peptides (Peptide A, P28, P21 and […]) inhibit TGF-β1-induced Smad3-driven transcriptional activity. […] Cell lysates were analyzed for luciferase activity and data are expressed as mean±standard deviation of relative light units (RLU). […] Under the conditions tested, peptide A, P28, P21 and P16 inhibited TGF-β1-induced transcriptional (CAGA12-lux) activity.
FIG. 6 illustrates that the small molecular weight CD109-based peptide P16 (but not P16-2, P11 or X-4) inhibit TGF-β1-induced Smad3-driven transcriptional activity. HEK293 cells stably transfected with the Smad3-responsive CAGA12-lux luciferase reporter were treated for 18 hours without (−) or with (+) […] TGF-β1 in the presence or absence of 10 nM of P16-2 (16 aa scrambled control), P11 (11 aa sequence), P16 (16 aa), X-4 (11 aa) or Tris-buffer (buffer control) as indicated. Cell lysates were analyzed for luciferase activity and data are expressed as mean±standard deviation of luciferase activity. Results are shown as luciferase activity for the peptides used.
FIG. 8 illustrates that DMSO treatment enhances the TGF-β inhibitory activity of Peptide X but not P21 or P16. HEK293 cells stably transfected with the Smad3-responsive CAGA12-lux luciferase reporter were treated for 18 hours without (−) or with (+) 100 pM TGF-β1 in the presence or absence of Peptide X (PX), P21 or P16. The peptides were previously dissolved in Tris buffer and left untreated or treated with DMSO prior to addition to the cells. Addition of Tris buffer or DMSO alone served as additional controls. Cell lysates were analyzed for luciferase activity and data are expressed as mean±standard deviation of luciferase activity. Results are shown as luciferase activity. […] P16 and P21 inhibited TGF-β1-induced CAGA12-lux activity and these effects were not enhanced by DMSO treatment. […]
FIG. 25 is a graph showing the ability of CD109-based peptides to inhibit TGF-β-induced, Smad3-driven transcriptional activity. HEK293 cells stably transfected with the Smad3-responsive CAGA12-lux luciferase reporter were treated for 18 hours without (−) or with (+) 100 pM TGF-b1 in the presence or absence of 10 nM of P16, P16.2, peptide A, P15, P14, P13, P12, P11, peptide X, P21, or 2% NH4OH buffer (buffer control) as indicated. Cell lysates were analyzed for luciferase activity and data are expressed as mean±standard deviation of luciferase activity.
HEK293 cells stably transfected with the Smad3-responsive CAGA12-lux luciferase reporter construct were incubated with dimeric or monomeric forms of peptide A as indicated and treated with 100 pM TGF-b overnight. Cell lysates were analyzed for luciferase activity. Data are presented as fold-activation compared to TGF-b1 treatment alone (scaled to 1.0). M+D, mixture of monomer and dimer.
Luciferase reporter assays were performed using a HEK293-(CAGA)12 cell line that stably expresses a TGF-β/Smad3-responsive (CAGA)12-luciferase reporter gene [Cash et al. 2013]. HEK293-(CAGA)12 cells were grown in 24-well plates to 70-80% confluency and serum-starved overnight. Cells were washed with PBS and treated with or without TGF-β1 in presence or absence of various CD109-based peptides as indicated in the figure legends. Cells were then washed twice with cold PBS and solubilized in 100 μl of Passive Lysis Buffer (Promega) for 30 min at 4° C. The cell lysates were assayed for luciferase and β-galactosidase activities using commercially available kits (BD Biosciences).
HEK293 cells stably transfected with the Smad3-responsive CAGA12-lux luciferase reporter were treated for 18 hours without (−) or with (+) 100 pM TGF-β1 in the presence or absence of 10 nM (FIG. 5A) or 5 nM (FIG. 5B) of peptide A (Pep A, 161 aa), P28 (28 aa peptide), P21 (21 aa peptide), P16 (16 aa peptide), P16.2 scrambled peptide (16 aa, scrambled P16 sequence) or Tris-buffer (negative control for peptides) as indicated. […]

[5] = 10 nM peptide, 100 pM TGF-β1, 18 hours (FIG. 6)
[6] = 10 nM or 5 nM peptide, 100 pM TGF-β1, 18 hours (FIG. 5)

Sequence	inhibition of TGF-β1-induced PAI-1 protein production [1]	formation of aggregates by size-exclusion chromatography [2]	Aggregation? [2]	inhibition of TGF-β1-induced CAGA12-lux activity [3, 5]	inhibition of TGF-β1-induced CAGA12-lux activity [3, 6]	inhibition of TGF-β1-induced CAGA12-lux activity, peptide pre-treated with DMSO ([4]; 0.5% DMSO pre-treatment (FIG. 8))	inhibition of TGF-β1-induced CAGA12-lux activity, peptide in Tris buffer left untreated ([4]; no DMSO (FIG. 8))
ILNTWMDSTQIGYRWE [Peptide P16-1, scrambled peptide of 16 aa, control, reference compound]	no effect	–	–	–	–	–	–
LDTNMGSRIYQEFEVT [Peptide X-3]	–	formed aggregates	Aggregated	–	–	–	–
ETWIWLDTNMG [Peptide P11]	not	did not	Not aggregated	did not	–	–	–
ETWIWLDTNMGSRIYQEFEVT [Peptide P21]	–	did not	Not aggregated	–	inhibited	not enhanced	inhibited
GSRIYQEFEVT [Peptide X-4]	–	did not	Not aggregated	did not	–	–	–
WINMDTGQLIEQRYTS [Peptide P16-2, reference compound]	–	did not	Not aggregated	no effect	no inhibitory effect	–	–
